The target in assay [1] is T1, human FcγRIIIa type V extracellular domain with C-terminal His tag (human, UniProt P08637 17-208).
T1 construct: extracellular domain; also called FcγRIIIaV; FcγRIIIa V type
The assay is described as follows: SPR, Ref. Ex. 25.

For assay [2], the target named is T2, human FcγRIIa type R extracellular domain with C-terminal His tag (human, UniProt P12318 34-217).
T2 construct: extracellular domain; also called FcγRIIaR; FcγRIIa R
T2 sequence (looked up): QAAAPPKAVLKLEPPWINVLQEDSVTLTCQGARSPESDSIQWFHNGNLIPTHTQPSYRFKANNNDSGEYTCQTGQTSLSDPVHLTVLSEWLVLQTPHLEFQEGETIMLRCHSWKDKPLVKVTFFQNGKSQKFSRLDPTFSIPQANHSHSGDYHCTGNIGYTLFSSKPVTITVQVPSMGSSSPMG
The assay is described as follows: SPR, Ref. Ex. 25. On the technique in general: SPR reads the build-up and loss of mass on a sensor chip optically.

Assay [3] addresses T3, human FcγRIIb extracellular domain with C-terminal His tag (human, UniProt P31994 43-217).
T3 construct: extracellular domain; not shown: His tag at the C terminus
T3 sequence (looked up): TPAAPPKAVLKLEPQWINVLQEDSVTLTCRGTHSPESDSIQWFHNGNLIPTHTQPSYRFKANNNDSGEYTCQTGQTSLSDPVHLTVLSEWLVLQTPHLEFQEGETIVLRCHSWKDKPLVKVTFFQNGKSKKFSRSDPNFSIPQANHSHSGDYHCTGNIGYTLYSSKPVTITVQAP
The assay is described as follows: SPR (Biacore), antibody captured, FcγR analyte.

For the next assay, the target named is T4, human FcRn (human, UniProt P55899 24-297; P61769 21-119).
T4 construct: the construct is not described
Briefly: binding to FcRn at pH 6.0; method not stated.

T1 sequence (P08637 17-208 F176V): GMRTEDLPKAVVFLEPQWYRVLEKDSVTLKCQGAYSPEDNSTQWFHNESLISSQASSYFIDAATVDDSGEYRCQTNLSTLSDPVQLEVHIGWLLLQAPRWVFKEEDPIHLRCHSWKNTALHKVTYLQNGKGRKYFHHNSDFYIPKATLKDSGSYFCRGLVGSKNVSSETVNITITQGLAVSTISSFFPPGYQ
T4 sequence (P55899 24-297 limits assumed, chain 1 of 2): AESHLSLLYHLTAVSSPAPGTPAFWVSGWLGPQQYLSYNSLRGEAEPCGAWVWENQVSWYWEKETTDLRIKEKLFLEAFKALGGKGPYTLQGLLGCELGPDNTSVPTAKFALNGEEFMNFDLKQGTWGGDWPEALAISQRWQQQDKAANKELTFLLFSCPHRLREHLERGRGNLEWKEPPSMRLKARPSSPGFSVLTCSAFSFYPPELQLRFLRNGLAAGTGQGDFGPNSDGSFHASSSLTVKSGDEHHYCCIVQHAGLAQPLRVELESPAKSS
T4 sequence (P61769 21-119 limits assumed, chain 2 of 2): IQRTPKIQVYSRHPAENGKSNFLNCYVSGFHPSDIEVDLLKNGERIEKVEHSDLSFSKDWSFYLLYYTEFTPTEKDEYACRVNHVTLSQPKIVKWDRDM

B1: IL6R-PD043/IL6R-L (antibody, human IgG1, kappa)
heavy: QVQLQESGPGLVKPSETLSLTCAVSGHSISHDHAWSWVRQPPGEGLEWIGFISYSGITNYNPSLQGRVTISRDNSKNTLYLQMNSLRAEDTAVYYCARSLARTTAMDYWGEGTLVTVSSASTKGPSVFPLAPSSKSTSGGTAALGCLVKDYFPEPVTVSWNSGALTSGVHTFPAVLQSSGLYSLSSVVTVPSSSLGTQTYICNVNHKPSNTKVDKKVEPKSCDKTHTCPPCPAPEYLGGDSVFLFPPKPKDTLYISRTPEVTCVVVDVSHEDPEVKFNWYVDGVEVHNAKTKPREEQYNSTYRVVSVLTVLHQDWLNGKEYKCKVSNKALPAPIEKTISKAKGQPREPQVYTLPPSRDELTKNQVSLTCLVKGFYPSDIAVEWESNGQPENNYKTTPPVLDSDGSFFLYSKLTVDKSRWQQGNVFSCSVMHEALHYHYTQKSLSLSP
light: not shown
notes: also called P238D/L234Y; L234Y/P238D; copies: 2 + 2
Regarding B1, the Kd in assay [1] was 45 µM; in assay [2] it was 26 µM.

B2: IL6R-PD095/IL6R-L (antibody, human IgG1, kappa)
heavy: QVQLQESGPGLVKPSETLSLTCAVSGHSISHDHAWSWVRQPPGEGLEWIGFISYSGITNYNPSLQGRVTISRDNSKNTLYLQMNSLRAEDTAVYYCARSLARTTAMDYWGEGTLVTVSSASTKGPSVFPLAPSSKSTSGGTAALGCLVKDYFPEPVTVSWNSGALTSGVHTFPAVLQSSGLYSLSSVVTVPSSSLGTQTYICNVNHKPSNTKVDKKVEPKSCDKTHTCPPCPAPELLGYDSVFLFPPKPKDTLYISRTPEVTCVVVDVSHEDPEVKFNWYVDGVEVHNAKTKPREEQYNSTYRVVSVLTVLHQDWLNGKEYKCKVSNKALPAPIEKTISKAKGQPREPQVYTLPPSRDELTKNQVSLTCLVKGFYPSDIAVEWESNGQPENNYKTTPPVLDSDGSFFLYSKLTVDKSRWQQGNVFSCSVMHEALHYHYTQKSLSLSP
light: not shown
notes: also called P238D/G237Y; G237Y/P238D; copies: 2 + 2
Turning to B2, the Kd came out at 42 µM in assay [1] and 7.9 µM in assay [2].

B3: IL6R-PD082/IL6R-L (antibody, human IgG1, kappa)
heavy: QVQLQESGPGLVKPSETLSLTCAVSGHSISHDHAWSWVRQPPGEGLEWIGFISYSGITNYNPSLQGRVTISRDNSKNTLYLQMNSLRAEDTAVYYCARSLARTTAMDYWGEGTLVTVSSASTKGPSVFPLAPSSKSTSGGTAALGCLVKDYFPEPVTVSWNSGALTSGVHTFPAVLQSSGLYSLSSVVTVPSSSLGTQTYICNVNHKPSNTKVDKKVEPKSCDKTHTCPPCPAPELLGFDSVFLFPPKPKDTLYISRTPEVTCVVVDVSHEDPEVKFNWYVDGVEVHNAKTKPREEQYNSTYRVVSVLTVLHQDWLNGKEYKCKVSNKALPAPIEKTISKAKGQPREPQVYTLPPSRDELTKNQVSLTCLVKGFYPSDIAVEWESNGQPENNYKTTPPVLDSDGSFFLYSKLTVDKSRWQQGNVFSCSVMHEALHYHYTQKSLSLSP
light: not shown
notes: also called P238D/G237F; G237F/P238D; copies: 2 + 2
For the molecule B3, the dissociation constant Kd in assay [1] came out at 43 µM; in assay [2] it was 14 µM.

B4: IL6R-PD094/IL6R-L (antibody, human IgG1, kappa)
heavy: QVQLQESGPGLVKPSETLSLTCAVSGHSISHDHAWSWVRQPPGEGLEWIGFISYSGITNYNPSLQGRVTISRDNSKNTLYLQMNSLRAEDTAVYYCARSLARTTAMDYWGEGTLVTVSSASTKGPSVFPLAPSSKSTSGGTAALGCLVKDYFPEPVTVSWNSGALTSGVHTFPAVLQSSGLYSLSSVVTVPSSSLGTQTYICNVNHKPSNTKVDKKVEPKSCDKTHTCPPCPAPELLGWDSVFLFPPKPKDTLYISRTPEVTCVVVDVSHEDPEVKFNWYVDGVEVHNAKTKPREEQYNSTYRVVSVLTVLHQDWLNGKEYKCKVSNKALPAPIEKTISKAKGQPREPQVYTLPPSRDELTKNQVSLTCLVKGFYPSDIAVEWESNGQPENNYKTTPPVLDSDGSFFLYSKLTVDKSRWQQGNVFSCSVMHEALHYHYTQKSLSLSP
light: not shown
notes: also called P238D/G237W; G237W/P238D; copies: 2 + 2
Take B4: the Kd was found to be 38 µM in assay [1] and 7.2 µM in assay [2].

B5: IL6R-BP542/IL6R-L (antibody, human IgG1, kappa)
heavy: QVQLQESGPGLVKPSETLSLTCAVSGHSISHDHAWSWVRQPPGEGLEWIGFISYSGITNYNPSLQGRVTISRDNSKNTLYLQMNSLRAEDTAVYYCARSLARTTAMDYWGEGTLVTVSSASTKGPSVFPLAPSSKSTSGGTAALGCLVKDYFPEPVTVSWNSGALTSGVHTFPAVLQSSGLYSLSSVVTVPSSSLGTQTYICNVNHKPSNTKVDKKVEPKSCDKTHTCPPCPAPDLLGDDSVFLFPPKPKDTLMISRTPEVTCVVVDVSDEDGEVKFNWYVDGVEVHNAKTKPREEQFNSTYRVVSVLTVLHQDWLNGKEYKCKVSNKALPRPIEKTISKAKGQPREPQVYTLPPSRDELTKNQVSLTCLVKGFYPSDIAVEWESNGQPENNYKTTPPVLDSDGSFFLYSKLTVDKSRWQQGNVFSCSVMHEALHNHYTQESLSLSP
light: not shown
notes: Y296F introduced into IL6R-BP230 (takes the place of Y296D); copies: 2 + 2
For B5, the Kd in assay [3] stood at 0.02 µM.

B6: Fv4-F1392 (antibody, human IgG1, kappa)
heavy: QVQLQESGPGLVKPSETLSLTCAVSGHSISHDHAWSWVRQPPGEGLEWIGFISYSGITNYNPSLQGRVTISRDNSKNTLYLQMNSLRAEDTAVYYCARSLARTTAMDYWGEGTLVTVSSASTKGPSVFPLAPSSKSTSGGTAALGCLVKDYFPEPVTVSWNSGALTSGVHTFPAVLQSSGLYSLSSVVTVPSSSLGTQTYICNVNHKPSNTKVDKKVEPKSCDKTHTCPPCPAPELLGGPSVFLFPPKPKDTLMISRTPEVTCVVVDVSHEDPEVKFNWYVDGVEVHNAKTKPREEQYNSTYRVVSVLTVLHQDWLNGKEYKCKVSNKALPAPIEKTISKAKGQPREPQVYTLPPSRDELTKNQVSLTCLVKGFYPSDIAVEWESNGQPENNYKTTPPVLDSDGSFFLYSKLTVDKSRWQQGNVFSCSVLHEALHSHKTQKSLSLSP
light: DIQMTQSPSSLSASVGDSVTITCQASTDISSHLNWYQQKPGKAPELLIYYGSHLLSGVPSRFSGSGSGTDFTFTISSLEAEDAATYYCGQGNRLPYTFGQGTKVEIERTVAAPSVFIFPPSDEQLKSGTASVVCLLNNFYPREAKVQWKVDNALQSGNSQESVTEQDSKDSTYSLSSTLTLSKADYEKHKVYACEVTHQGLSSPVTKSFNRGEC
notes: Variant of Fv4-LS; copies: 2 + 2
With B6, the Kd with human FcRn turned out to be 0.27 µM.

B7: Fv4-F1391 (antibody, human IgG1, kappa)
heavy: QVQLQESGPGLVKPSETLSLTCAVSGHSISHDHAWSWVRQPPGEGLEWIGFISYSGITNYNPSLQGRVTISRDNSKNTLYLQMNSLRAEDTAVYYCARSLARTTAMDYWGEGTLVTVSSASTKGPSVFPLAPSSKSTSGGTAALGCLVKDYFPEPVTVSWNSGALTSGVHTFPAVLQSSGLYSLSSVVTVPSSSLGTQTYICNVNHKPSNTKVDKKVEPKSCDKTHTCPPCPAPELLGGPSVFLFPPKPKDTLMISRTPEVTCVVVDVSHEDPEVKFNWYVDGVEVHNAKTKPREEQYNSTYRVVSVLTVLHQDWLNGKEYKCKVSNKALPAPIEKTISKAKGQPREPQVYTLPPSRDELTKNQVSLTCLVKGFYPSDIAVEWESNGQPENNYKTTPPVLDSDGSFFLYSKLTVDKSRWQQGNVFSCSVLHEALHSHNTQKSLSLSP
light: DIQMTQSPSSLSASVGDSVTITCQASTDISSHLNWYQQKPGKAPELLIYYGSHLLSGVPSRFSGSGSGTDFTFTISSLEAEDAATYYCGQGNRLPYTFGQGTKVEIERTVAAPSVFIFPPSDEQLKSGTASVVCLLNNFYPREAKVQWKVDNALQSGNSQESVTEQDSKDSTYSLSSTLTLSKADYEKHKVYACEVTHQGLSSPVTKSFNRGEC
notes: as for B6
Take B7: the Kd with human FcRn came out at 0.42 µM.

B8: IL6R-PD086/IL6R-L (antibody, human IgG1, kappa)
heavy: QVQLQESGPGLVKPSETLSLTCAVSGHSISHDHAWSWVRQPPGEGLEWIGFISYSGITNYNPSLQGRVTISRDNSKNTLYLQMNSLRAEDTAVYYCARSLARTTAMDYWGEGTLVTVSSASTKGPSVFPLAPSSKSTSGGTAALGCLVKDYFPEPVTVSWNSGALTSGVHTFPAVLQSSGLYSLSSVVTVPSSSLGTQTYICNVNHKPSNTKVDKKVEPKSCDKTHTCPPCPAPELLGLDSVFLFPPKPKDTLYISRTPEVTCVVVDVSHEDPEVKFNWYVDGVEVHNAKTKPREEQYNSTYRVVSVLTVLHQDWLNGKEYKCKVSNKALPAPIEKTISKAKGQPREPQVYTLPPSRDELTKNQVSLTCLVKGFYPSDIAVEWESNGQPENNYKTTPPVLDSDGSFFLYSKLTVDKSRWQQGNVFSCSVMHEALHYHYTQKSLSLSP
light: not shown
notes: also called P238D/G237L; G237L/P238D; copies: 2 + 2
B8 returned a Kd in assay [1] of 41 µM.

B9: IL6R-PD097/IL6R-L (antibody, human IgG1, kappa)
heavy: QVQLQESGPGLVKPSETLSLTCAVSGHSISHDHAWSWVRQPPGEGLEWIGFISYSGITNYNPSLQGRVTISRDNSKNTLYLQMNSLRAEDTAVYYCARSLARTTAMDYWGEGTLVTVSSASTKGPSVFPLAPSSKSTSGGTAALGCLVKDYFPEPVTVSWNSGALTSGVHTFPAVLQSSGLYSLSSVVTVPSSSLGTQTYICNVNHKPSNTKVDKKVEPKSCDKTHTCPPCPAPELLGGDDVFLFPPKPKDTLYISRTPEVTCVVVDVSHEDPEVKFNWYVDGVEVHNAKTKPREEQYNSTYRVVSVLTVLHQDWLNGKEYKCKVSNKALPAPIEKTISKAKGQPREPQVYTLPPSRDELTKNQVSLTCLVKGFYPSDIAVEWESNGQPENNYKTTPPVLDSDGSFFLYSKLTVDKSRWQQGNVFSCSVMHEALHYHYTQKSLSLSP
light: not shown
notes: also called P238D/S239D; copies: 2 + 2
Consider B9, for which, in assay [1], the Kd was found to be 17 µM.

B10: IL6R-PD081/IL6R-L (antibody, human IgG1, kappa)
heavy: QVQLQESGPGLVKPSETLSLTCAVSGHSISHDHAWSWVRQPPGEGLEWIGFISYSGITNYNPSLQGRVTISRDNSKNTLYLQMNSLRAEDTAVYYCARSLARTTAMDYWGEGTLVTVSSASTKGPSVFPLAPSSKSTSGGTAALGCLVKDYFPEPVTVSWNSGALTSGVHTFPAVLQSSGLYSLSSVVTVPSSSLGTQTYICNVNHKPSNTKVDKKVEPKSCDKTHTCPPCPAPELLGEDSVFLFPPKPKDTLYISRTPEVTCVVVDVSHEDPEVKFNWYVDGVEVHNAKTKPREEQYNSTYRVVSVLTVLHQDWLNGKEYKCKVSNKALPAPIEKTISKAKGQPREPQVYTLPPSRDELTKNQVSLTCLVKGFYPSDIAVEWESNGQPENNYKTTPPVLDSDGSFFLYSKLTVDKSRWQQGNVFSCSVMHEALHYHYTQKSLSLSP
light: not shown
notes: also called P238D/G237E; G237E/P238D; copies: 2 + 2
As for B10, the Kd in assay [1] came out at 41 µM; in assay [2], 38 µM.

By Kd is commonly meant the constant that tells how readily two partners part at equilibrium.

(Values after patent US20220389118A1 (Chugai, published 2022).)
